In patent US20250163161A1 (TECHNISCHE UNIVERSIT T DARMSTADT, published 2025):
Like-named read-outs stand apart in the source and are kept apart here.

Legend:
Test in all cases: BLI
[1] = target: T1, epidermal growth factor receptor (EGFR), soluble, as used in BLI (UniProt P00533 25-645)
T1 construct: extracellular domain; also called EGFR-ECD

[2] = target: T2, programmed death-ligand 1 (PD-L1), soluble, as used in BLI (UniProt Q9NZQ7 19-238)
T2 construct: extracellular domain; also called PD-L1-ECD
T2 sequence (Q9NZQ7 19-238): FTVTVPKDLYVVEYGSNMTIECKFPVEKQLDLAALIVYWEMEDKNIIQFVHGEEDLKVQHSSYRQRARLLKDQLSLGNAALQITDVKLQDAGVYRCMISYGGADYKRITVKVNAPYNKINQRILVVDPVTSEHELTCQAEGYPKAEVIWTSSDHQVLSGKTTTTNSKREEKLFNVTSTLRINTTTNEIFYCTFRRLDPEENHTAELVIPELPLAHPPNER

CD16 [3] = target: T3, CD16 (UniProt P08637 17-208)
T3 construct: also called Fcγ-receptor IIIa
T3 sequence (P08637 17-208): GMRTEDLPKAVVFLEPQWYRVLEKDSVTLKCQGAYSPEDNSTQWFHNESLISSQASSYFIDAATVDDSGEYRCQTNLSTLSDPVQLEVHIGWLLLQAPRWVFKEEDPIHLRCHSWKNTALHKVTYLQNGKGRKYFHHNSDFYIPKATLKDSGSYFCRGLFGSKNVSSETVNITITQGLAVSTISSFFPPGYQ

CD16 [4] = target: T3, CD16; remark: listed apart in the source
[5] = target: T1, epidermal growth factor receptor …; remark: listed apart in the source
[6] = target: T2, programmed death-ligand 1 (PD-L1), …; remark: listed apart in the source

Row | Binder | Kd [1] [nM] | Kd [2] [nM] | Kd (CD16 [3]) [nM] | Kd (CD16 [4]) [nM] | Kd [5] [nM] | Kd [6] [nM]
1 | HC16/ICI2 KiH variant: HCP-LCE on one side and CD16 binder HC16 on the other, paired with the HCP-LCE light chain (bispecific antibody) VH 1: AVTLDESGGGLQTPGGALSLVCKASGFDFSSYDMAWVRQAPGKGLEWVAGIKSNGPWTNYGAAVKGRATISRDNGQSTVRLQLNNLRAEDTAIYYCAKPGAGYVGWDAAGTIDSWGHGTEVIVSS VH 2: AVTLDESGGGLQTPGGTLSLVCRASGFSFSSSDMFWVRQAPGKGLEYVAQISKDGSGKYYGAAVKGRATISRDNGQSTVRLQLNNLRAEDTGIYFCAKSGRGYVTAGRIDTWGHGTEVIVSS light: ALTQPSSVSANLGETVKITCSGGAYSDCGWYQQKSPGSAPVTVIYYNDKRPSDIPSRFSGSTFGSTATLTITGVQAEDEAVYYCGGYDSRTGYVGVFGAGTTLTVLGQPKANPTVTLFPPSSEELQANKATLVCLISDFYPGAVTVAWKADGSPVKAGVETTKPSKQSNNKYAASSYLSLTPEQWKSHRSYSCQVTHEGSTVEKTVAPTECS | 320 | 57.7 | 21.9 |  |  | 
2 | NKE14 + LCE comparative mAb (CD16-binding antibody NKE14 heavy chain with LCE light chain) (antibody, LCE is the HCP-LCE light chain) VH: AVTLDESGGGLQTPGGGLSLVCKGSGFTFSSYNMGWVRQAPGKGLEFVASIDDDGSFTHYGAAVKGRATISRDNGQSTVRLQLNNLRVEDSGIYYCAKSSINGYRCSGGLCVPYITGNIDAWGHGTEVIVSS light: ALTQPSSVSANLGETVKITCSGGAYSDCGWYQQKSPGSAPVTVIYYNDKRPSDIPSRFSGSTFGSTATLTITGVQAEDEAVYYCGGYDSRTGYVGVFGAGTTLTVLGQPKANPTVTLFPPSSEELQANKATLVCLISDFYPGAVTVAWKADGSPVKAGVETTKPSKQSNNKYAASSYLSLTPEQWKSHRSYSCQVTHEGSTVEKTVAPTECS |  |  |  | 151 |  | 
3 | NKE14_outer and ICI2_inner trispecific variant V4 (bispecific antibody, human IgG1, lambda, L234A L235A, Two Fabs on each side, common light chain LCE; also called NKE14_outer Fab) heavy: not shown light: ALTQPSSVSANLGETVKITCSGGAYSDCGWYQQKSPGSAPVTVIYYNDKRPSDIPSRFSGSTFGSTATLTITGVQAEDEAVYYCGGYDSRTGYVGVFGAGTTLTVLGQPKANPTVTLFPPSSEELQANKATLVCLISDFYPGAVTVAWKADGSPVKAGVETTKPSKQSNNKYAASSYLSLTPEQWKSHRSYSCQVTHEGSTVEKTVAPTECS |  |  |  | 302 | 603 | 125
4 | HC16_outer/ICI2_inner trispecific variant (full-length HC16_outer and ICI2_inner LALA construct) (bispecific antibody, human IgG1, lambda, L234A L235A, Two Fabs on each side, common light chain LCE; also called HC16_outer/ICI2_inner LALA) heavy: not shown light: ALTQPSSVSANLGETVKITCSGGAYSDCGWYQQKSPGSAPVTVIYYNDKRPSDIPSRFSGSTFGSTATLTITGVQAEDEAVYYCGGYDSRTGYVGVFGAGTTLTVLGQPKANPTVTLFPPSSEELQANKATLVCLISDFYPGAVTVAWKADGSPVKAGVETTKPSKQSNNKYAASSYLSLTPEQWKSHRSYSCQVTHEGSTVEKTVAPTECS | 331 | 68 | 17 |  |  | 
5 | one-armed ICI2_outer and NKE14_inner variant V3 (bispecific antibody, human IgG1, lambda, L234A L235A, also called oaICI2_outer) heavy 1: AVTLDESGGGLQTPGGALSLVCKASGFDFSSYDMAWVRQAPGKGLEWVAGIKSNGPWTNYGAAVKGRATISRDNGQSTVRLQLNNLRAEDTAIYYCAKPGAGYVGWDAAGTIDSWGHGTEVIVSSASTKGPSVFPLAPSSKSTSGGTAALGCLVKDYFPEPVTVSWNSGALTSGVHTFPAVLQSSGLYSLSSVVTVPSSSLGTQTYICNVNHKPSNTKVDKRVEPKSCDGGGGSGGGGSAVTLDESGGGLQTPGGGLSLVCKGSGFTFSSYNMGWVRQAPGKGLEFVASIDDDGSFTHYGAAVKGRATISRDNGQSTVRLQLNNLRVEDSGIYYCAKSSINGYRCSGGLCVPYITGNIDAWGHGTEVIVSSASTKGPSVFPLAPSSKSTSGGTAALGCLVKDYFPEPVTVSWNSGALTSGVHTFPAVLQSSGLYSLSSVVTVPSSSLGTQTYICNVNHKPSNTKVDKRVEPKSCDKTHTCPPCPAPEAAGGPSVFLFPPKPKDTLMISRTPEVTCVVVDVSHEDPEVKFNWYVDGVEVHNAKTKPREEQYNSTYRVVSVLTVLHQDWLNGKEYKCKVSNKALPAPIEKTISKAKGQPREPQVYTLPPSREEMTKNQVSLWCLVKGFYPSDIAVEWESNGQPENNYKTTPPVLDSDGSFFLYSKLTVDKSRWQQGNVFSCSVMHEALHNHYTQKSLSLSPG heavy 2: EPKSCDKTHTCPPCPAPEAAGGPSVFLFPPKPKDTLMISRTPEVTCVVVDVSHEDPEVKFNWYVDGVEVHNAKTKPREEQYNSTYRVVSVLTVLHQDWLNGKEYKCKVSNKALPAPIEKTISKAKGQPREPQVYTLPPSREEMTKNQVSLSCAVKGFYPSDIAVEWESNGQPENNYKTTPPVLDSDGSFFLVSKLTVDKSRWQQGNVFSCSVMHEALHNRFTQKSLSLSPG light: ALTQPSSVSANLGETVKITCSGGAYSDCGWYQQKSPGSAPVTVIYYNDKRPSDIPSRFSGSTFGSTATLTITGVQAEDEAVYYCGGYDSRTGYVGVFGAGTTLTVLGQPKANPTVTLFPPSSEELQANKATLVCLISDFYPGAVTVAWKADGSPVKAGVETTKPSKQSNNKYAASSYLSLTPEQWKSHRSYSCQVTHEGSTVEKTVAPTECS |  |  |  | 346 | 763 | 115
6 | one-armed NKE14_outer and ICI2_inner variant V5 (bispecific antibody, human IgG1, lambda, L234A L235A, also called oaNKE14_outer) heavy 1: AVTLDESGGGLQTPGGGLSLVCKGSGFTFSSYNMGWVRQAPGKGLEFVASIDDDGSFTHYGAAVKGRATISRDNGQSTVRLQLNNLRVEDSGIYYCAKSSINGYRCSGGLCVPYITGNIDAWGHGTEVIVSSASTKGPSVFPLAPSSKSTSGGTAALGCLVKDYFPEPVTVSWNSGALTSGVHTFPAVLQSSGLYSLSSVVTVPSSSLGTQTYICNVNHKPSNTKVDKRVEPKSCDGGGGSGGGGSAVTLDESGGGLQTPGGALSLVCKASGFDFSSYDMAWVRQAPGKGLEWVAGIKSNGPWTNYGAAVKGRATISRDNGQSTVRLQLNNLRAEDTAIYYCAKPGAGYVGWDAAGTIDSWGHGTEVIVSSASTKGPSVFPLAPSSKSTSGGTAALGCLVKDYFPEPVTVSWNSGALTSGVHTFPAVLQSSGLYSLSSVVTVPSSSLGTQTYICNVNHKPSNTKVDKRVEPKSCDKTHTCPPCPAPEAAGGPSVFLFPPKPKDTLMISRTPEVTCVVVDVSHEDPEVKFNWYVDGVEVHNAKTKPREEQYNSTYRVVSVLTVLHQDWLNGKEYKCKVSNKALPAPIEKTISKAKGQPREPQVYTLPPSREEMTKNQVSLWCLVKGFYPSDIAVEWESNGQPENNYKTTPPVLDSDGSFFLYSKLTVDKSRWQQGNVFSCSVMHEALHNHYTQKSLSLSPG heavy 2: EPKSCDKTHTCPPCPAPEAAGGPSVFLFPPKPKDTLMISRTPEVTCVVVDVSHEDPEVKFNWYVDGVEVHNAKTKPREEQYNSTYRVVSVLTVLHQDWLNGKEYKCKVSNKALPAPIEKTISKAKGQPREPQVYTLPPSREEMTKNQVSLSCAVKGFYPSDIAVEWESNGQPENNYKTTPPVLDSDGSFFLVSKLTVDKSRWQQGNVFSCSVMHEALHNRFTQKSLSLSPG light: ALTQPSSVSANLGETVKITCSGGAYSDCGWYQQKSPGSAPVTVIYYNDKRPSDIPSRFSGSTFGSTATLTITGVQAEDEAVYYCGGYDSRTGYVGVFGAGTTLTVLGQPKANPTVTLFPPSSEELQANKATLVCLISDFYPGAVTVAWKADGSPVKAGVETTKPSKQSNNKYAASSYLSLTPEQWKSHRSYSCQVTHEGSTVEKTVAPTECS |  |  |  | 342 | 982 | 137
7 | ICI2_outer and NKE14_inner trispecific variant V2 (bispecific antibody, human IgG1, lambda, L234A L235A, Two Fabs on each side, common light chain LCE; also called ICI2_outer Fab) heavy: not shown light: ALTQPSSVSANLGETVKITCSGGAYSDCGWYQQKSPGSAPVTVIYYNDKRPSDIPSRFSGSTFGSTATLTITGVQAEDEAVYYCGGYDSRTGYVGVFGAGTTLTVLGQPKANPTVTLFPPSSEELQANKATLVCLISDFYPGAVTVAWKADGSPVKAGVETTKPSKQSNNKYAASSYLSLTPEQWKSHRSYSCQVTHEGSTVEKTVAPTECS |  |  |  | 382 | 460 | 97.6
8 | Knob-into-Hole (KiH) trispecific variant V1: HCP-LCE on one side and heavy chain of CD16 binder NKE14, paired with the HCP-LCE light chain (bispecific antibody, human IgG1, lambda, L234A L235A, Trispecific (EGFR, PD-L1, CD16)) heavy 1: AVTLDESGGGLQTPGGALSLVCKASGFDFSSYDMAWVRQAPGKGLEWVAGIKSNGPWTNYGAAVKGRATISRDNGQSTVRLQLNNLRAEDTAIYYCAKPGAGYVGWDAAGTIDSWGHGTEVIVSSASTKGPSVFPLAPSSKSTSGGTAALGCLVKDYFPEPVTVSWNSGALTSGVHTFPAVLQSSGLYSLSSVVTVPSSSLGTQTYICNVNHKPSNTKVDKRVEPKSCDKTHTCPPCPAPEAAGGPSVFLFPPKPKDTLMISRTPEVTCVVVDVSHEDPEVKFNWYVDGVEVHNAKTKPREEQYNSTYRVVSVLTVLHQDWLNGKEYKCKVSNKALPAPIEKTISKAKGQPREPQVYTLPPSREEMTKNQVSLWCLVKGFYPSDIAVEWESNGQPENNYKTTPPVLDSDGSFFLYSKLTVDKSRWQQGNVFSCSVMHEALHNHYTQKSLSLSPG heavy 2: AVTLDESGGGLQTPGGGLSLVCKGSGFTFSSYNMGWVRQAPGKGLEFVASIDDDGSFTHYGAAVKGRATISRDNGQSTVRLQLNNLRVEDSGIYYCAKSSINGYRCSGGLCVPYITGNIDAWGHGTEVIVSSASTKGPSVFPLAPSSKSTSGGTAALGCLVKDYFPEPVTVSWNSGALTSGVHTFPAVLQSSGLYSLSSVVTVPSSSLGTQTYICNVNHKPSNTKVDKRVEPKSCDKTHTCPPCPAPEAAGGPSVFLFPPKPKDTLMISRTPEVTCVVVDVSHEDPEVKFNWYVDGVEVHNAKTKPREEQYNSTYRVVSVLTVLHQDWLNGKEYKCKVSNKALPAPIEKTISKAKGQPREPQVYTLPPSREEMTKNQVSLSCAVKGFYPSDIAVEWESNGQPENNYKTTPPVLDSDGSFFLVSKLTVDKSRWQQGNVFSCSVMHEALHNRFTQKSLSLSPG light: ALTQPSSVSANLGETVKITCSGGAYSDCGWYQQKSPGSAPVTVIYYNDKRPSDIPSRFSGSTFGSTATLTITGVQAEDEAVYYCGGYDSRTGYVGVFGAGTTLTVLGQPKANPTVTLFPPSSEELQANKATLVCLISDFYPGAVTVAWKADGSPVKAGVETTKPSKQSNNKYAASSYLSLTPEQWKSHRSYSCQVTHEGSTVEKTVAPTECS |  |  |  | 277 | 570 | 104
